Measured values taken from the supplement of paper PMC10065799, “High-throughput profiling of sequence recognition by tyrosine kinases and SH2 domains using bacterial peptide display” (eLife, 2023).
Each block holds one sequence with its values, some of them ahead of it.

Columns and labels:
Fes = Fes (UniProt P07332); assay: phosphorylation enrichment, bacterial display (enrichment ratio); higher = better substrate or ligand; peptides without Tyr show the background
FGFR1 = FGFR1 (UniProt P11362); assay: as above
c-Abl (mouse) = assay: as above
Hck = Hck (UniProt P08631); assay: as above
Jak2 = Jak2 (UniProt O60674); assay: as above
Fer (mouse) = assay: as above
EPHB1 = EPHB1 (UniProt P54762); assay: as above
MERTK = MERTK (UniProt Q12866); assay: as above
EPHB2 = EPHB2 (UniProt P29323); assay: as above
FGFR3 = FGFR3 (UniProt P22607); assay: as above
AncSZ = assay: as above
Fyn = Fyn (UniProt P06241); assay: as above
c-Src = assay: as above
Grb2 SH2 = Grb2 SH2 (UniProt P62993); assay: SH2 binding enrichment of the phosphorylated peptide, bacterial display (enrichment ratio); higher = better substrate or ligand; peptides without Tyr show the background
c-Src SH2 = assay: as above
SHP2-C SH2 = assay: as above
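Wherever SH2 binding enrichment of the phosphorylated peptide, bacterial display is given: peptide library displayed on the E. coli surface as eCPX fusions, selected cells deep-sequenced, score is each peptide's frequency after selection divided by its frequency in the input.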
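Wherever phosphorylation enrichment, bacterial display is given: 11-residue human phosphosite peptides and single-mutation variants displayed on the E. coli surface, counted by deep sequencing, each peptide's frequency after selection divided by its frequency in the unselected input library; frequency after pTyr selection over input frequency; kinase dosed for 20-30% of maximal phosphorylation in three min.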

MERTK, sequence (Q12866 whole entry, looked up): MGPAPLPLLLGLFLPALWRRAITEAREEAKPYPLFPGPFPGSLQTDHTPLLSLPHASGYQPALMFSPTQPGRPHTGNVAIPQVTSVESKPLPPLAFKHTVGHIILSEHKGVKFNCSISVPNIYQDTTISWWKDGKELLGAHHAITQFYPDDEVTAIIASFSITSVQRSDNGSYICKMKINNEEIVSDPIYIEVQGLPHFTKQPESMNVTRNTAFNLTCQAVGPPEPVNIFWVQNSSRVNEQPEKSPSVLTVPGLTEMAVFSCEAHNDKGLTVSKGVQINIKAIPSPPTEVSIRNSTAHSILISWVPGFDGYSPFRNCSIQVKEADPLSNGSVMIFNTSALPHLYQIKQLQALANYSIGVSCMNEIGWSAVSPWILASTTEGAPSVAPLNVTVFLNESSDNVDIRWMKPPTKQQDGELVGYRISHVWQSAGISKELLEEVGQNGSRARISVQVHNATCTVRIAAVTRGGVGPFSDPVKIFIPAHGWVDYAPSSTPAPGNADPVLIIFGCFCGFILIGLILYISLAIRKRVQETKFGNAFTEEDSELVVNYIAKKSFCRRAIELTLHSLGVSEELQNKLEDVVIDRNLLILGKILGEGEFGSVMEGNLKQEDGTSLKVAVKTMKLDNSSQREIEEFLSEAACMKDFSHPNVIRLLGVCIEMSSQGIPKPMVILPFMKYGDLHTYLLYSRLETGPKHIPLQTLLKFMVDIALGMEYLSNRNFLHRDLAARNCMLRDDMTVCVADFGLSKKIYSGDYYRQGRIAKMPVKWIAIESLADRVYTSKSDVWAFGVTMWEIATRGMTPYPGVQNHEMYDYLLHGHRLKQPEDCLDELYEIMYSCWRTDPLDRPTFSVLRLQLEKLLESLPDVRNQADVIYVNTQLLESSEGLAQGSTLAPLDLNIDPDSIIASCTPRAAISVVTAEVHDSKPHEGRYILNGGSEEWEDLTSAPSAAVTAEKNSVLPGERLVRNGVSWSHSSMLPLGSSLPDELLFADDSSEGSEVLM
FGFR3, sequence (P22607 whole entry, looked up): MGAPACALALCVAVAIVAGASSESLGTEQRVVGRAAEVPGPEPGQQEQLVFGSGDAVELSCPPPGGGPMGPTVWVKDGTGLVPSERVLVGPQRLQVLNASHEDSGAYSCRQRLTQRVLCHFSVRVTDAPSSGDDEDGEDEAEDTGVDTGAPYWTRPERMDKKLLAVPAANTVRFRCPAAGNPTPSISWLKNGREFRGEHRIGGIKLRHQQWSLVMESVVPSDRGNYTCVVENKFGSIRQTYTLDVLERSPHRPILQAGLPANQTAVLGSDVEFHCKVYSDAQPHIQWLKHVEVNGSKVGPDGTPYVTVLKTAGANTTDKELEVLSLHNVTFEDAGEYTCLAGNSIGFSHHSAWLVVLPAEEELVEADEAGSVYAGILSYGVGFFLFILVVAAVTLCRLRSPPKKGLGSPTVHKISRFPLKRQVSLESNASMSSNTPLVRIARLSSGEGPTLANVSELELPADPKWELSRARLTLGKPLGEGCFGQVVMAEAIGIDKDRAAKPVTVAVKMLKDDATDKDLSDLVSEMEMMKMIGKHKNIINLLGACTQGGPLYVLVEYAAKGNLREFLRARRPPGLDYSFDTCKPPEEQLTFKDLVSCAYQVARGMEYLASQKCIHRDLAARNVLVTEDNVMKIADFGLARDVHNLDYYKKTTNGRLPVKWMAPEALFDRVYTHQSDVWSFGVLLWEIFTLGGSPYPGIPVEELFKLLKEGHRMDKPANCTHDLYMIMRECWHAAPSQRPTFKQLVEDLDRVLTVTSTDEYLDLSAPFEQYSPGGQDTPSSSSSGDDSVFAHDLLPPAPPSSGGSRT
EPHB2, sequence (P29323 whole entry, looked up): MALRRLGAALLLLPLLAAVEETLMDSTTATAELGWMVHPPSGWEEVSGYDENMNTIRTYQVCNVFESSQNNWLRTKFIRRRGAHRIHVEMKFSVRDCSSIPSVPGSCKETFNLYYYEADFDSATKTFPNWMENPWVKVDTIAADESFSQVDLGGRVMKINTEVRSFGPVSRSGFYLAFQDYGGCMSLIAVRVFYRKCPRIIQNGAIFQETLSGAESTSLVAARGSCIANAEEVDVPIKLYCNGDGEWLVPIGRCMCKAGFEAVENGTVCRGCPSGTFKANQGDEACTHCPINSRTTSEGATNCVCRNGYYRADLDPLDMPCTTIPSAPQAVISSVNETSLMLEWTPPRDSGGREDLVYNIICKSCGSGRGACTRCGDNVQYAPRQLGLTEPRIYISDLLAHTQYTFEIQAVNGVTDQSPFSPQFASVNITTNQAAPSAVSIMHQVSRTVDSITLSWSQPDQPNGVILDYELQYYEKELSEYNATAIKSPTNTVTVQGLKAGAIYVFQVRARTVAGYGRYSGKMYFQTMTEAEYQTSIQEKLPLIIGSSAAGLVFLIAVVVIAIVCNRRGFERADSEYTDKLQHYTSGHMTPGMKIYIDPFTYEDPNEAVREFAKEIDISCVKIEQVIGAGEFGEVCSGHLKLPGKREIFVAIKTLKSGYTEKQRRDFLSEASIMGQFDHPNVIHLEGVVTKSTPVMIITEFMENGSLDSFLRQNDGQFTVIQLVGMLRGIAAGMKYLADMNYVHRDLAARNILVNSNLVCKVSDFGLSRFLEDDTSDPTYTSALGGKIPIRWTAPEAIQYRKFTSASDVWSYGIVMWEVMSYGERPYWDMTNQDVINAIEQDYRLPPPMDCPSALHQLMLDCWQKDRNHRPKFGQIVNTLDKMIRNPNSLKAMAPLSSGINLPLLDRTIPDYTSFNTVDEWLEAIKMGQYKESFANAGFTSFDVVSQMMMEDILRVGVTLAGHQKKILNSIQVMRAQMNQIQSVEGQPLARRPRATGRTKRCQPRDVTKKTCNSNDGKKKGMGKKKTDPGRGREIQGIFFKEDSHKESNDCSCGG
Hck, sequence (P08631 whole entry, looked up): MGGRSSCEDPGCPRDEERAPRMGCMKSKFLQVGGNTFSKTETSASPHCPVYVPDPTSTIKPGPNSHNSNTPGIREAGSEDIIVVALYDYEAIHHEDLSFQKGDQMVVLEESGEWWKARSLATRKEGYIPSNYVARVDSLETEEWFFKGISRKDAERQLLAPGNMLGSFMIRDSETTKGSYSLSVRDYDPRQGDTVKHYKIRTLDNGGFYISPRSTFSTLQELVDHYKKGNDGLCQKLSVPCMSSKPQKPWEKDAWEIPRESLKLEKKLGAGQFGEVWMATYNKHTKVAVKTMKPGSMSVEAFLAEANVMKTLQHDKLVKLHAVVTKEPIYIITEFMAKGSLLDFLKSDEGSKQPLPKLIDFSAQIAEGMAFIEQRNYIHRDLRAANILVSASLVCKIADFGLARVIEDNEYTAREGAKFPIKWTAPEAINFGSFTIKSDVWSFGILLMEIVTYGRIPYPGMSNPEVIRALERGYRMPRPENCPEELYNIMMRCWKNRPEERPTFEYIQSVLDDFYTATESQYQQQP
Fes, sequence (P07332 whole entry, looked up): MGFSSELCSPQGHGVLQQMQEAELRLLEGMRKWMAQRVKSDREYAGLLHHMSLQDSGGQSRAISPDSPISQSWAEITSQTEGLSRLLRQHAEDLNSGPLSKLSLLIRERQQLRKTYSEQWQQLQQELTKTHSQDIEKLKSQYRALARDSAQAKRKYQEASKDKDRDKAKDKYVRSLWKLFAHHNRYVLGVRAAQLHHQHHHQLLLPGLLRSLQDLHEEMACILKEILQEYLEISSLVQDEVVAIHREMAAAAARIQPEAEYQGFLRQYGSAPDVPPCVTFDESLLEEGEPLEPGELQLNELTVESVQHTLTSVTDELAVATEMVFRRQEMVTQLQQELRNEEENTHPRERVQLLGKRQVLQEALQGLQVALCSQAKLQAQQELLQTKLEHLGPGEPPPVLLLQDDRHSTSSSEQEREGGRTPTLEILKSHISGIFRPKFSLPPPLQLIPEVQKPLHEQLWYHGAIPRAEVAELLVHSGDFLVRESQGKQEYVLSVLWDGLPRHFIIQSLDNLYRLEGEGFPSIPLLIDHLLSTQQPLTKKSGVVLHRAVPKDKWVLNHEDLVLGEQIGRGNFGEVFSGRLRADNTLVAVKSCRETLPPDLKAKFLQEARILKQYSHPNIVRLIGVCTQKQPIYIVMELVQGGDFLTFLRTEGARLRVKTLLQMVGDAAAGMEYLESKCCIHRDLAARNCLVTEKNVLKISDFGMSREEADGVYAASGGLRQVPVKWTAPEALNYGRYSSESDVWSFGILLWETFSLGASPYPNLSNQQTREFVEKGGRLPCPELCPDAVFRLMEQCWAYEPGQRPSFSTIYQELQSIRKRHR
FGFR1, sequence (P11362 whole entry, looked up): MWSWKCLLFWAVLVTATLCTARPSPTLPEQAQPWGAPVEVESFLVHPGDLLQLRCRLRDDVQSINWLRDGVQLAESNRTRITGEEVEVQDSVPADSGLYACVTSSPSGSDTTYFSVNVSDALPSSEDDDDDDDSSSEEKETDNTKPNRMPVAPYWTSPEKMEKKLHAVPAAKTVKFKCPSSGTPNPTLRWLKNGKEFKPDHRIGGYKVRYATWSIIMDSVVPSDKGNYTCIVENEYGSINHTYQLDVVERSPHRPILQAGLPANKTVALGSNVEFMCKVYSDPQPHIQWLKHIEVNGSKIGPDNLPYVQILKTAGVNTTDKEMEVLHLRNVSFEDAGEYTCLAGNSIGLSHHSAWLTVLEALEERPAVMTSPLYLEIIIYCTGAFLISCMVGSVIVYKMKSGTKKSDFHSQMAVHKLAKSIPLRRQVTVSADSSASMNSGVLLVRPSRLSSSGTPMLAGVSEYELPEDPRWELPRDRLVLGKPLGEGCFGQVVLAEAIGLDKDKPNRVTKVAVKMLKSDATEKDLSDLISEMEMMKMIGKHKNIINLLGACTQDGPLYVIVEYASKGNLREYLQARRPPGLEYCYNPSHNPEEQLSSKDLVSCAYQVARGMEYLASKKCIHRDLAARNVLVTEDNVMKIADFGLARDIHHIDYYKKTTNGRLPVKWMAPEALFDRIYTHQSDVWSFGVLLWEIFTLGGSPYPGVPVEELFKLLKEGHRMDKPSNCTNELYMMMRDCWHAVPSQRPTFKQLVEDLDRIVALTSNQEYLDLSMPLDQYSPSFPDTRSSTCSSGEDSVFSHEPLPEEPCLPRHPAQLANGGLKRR

SH2 binding enrichment (Grb2 SH2): 1.26
SH2 binding enrichment (c-Src SH2): 1.22
SH2 binding enrichment (SHP2-C SH2): 1.08
Sequence: KDHRDYKYQPR [SOX9_Y172_P170R]
phosphorylation enrichment (Fes): 0.864
phosphorylation enrichment (FGFR1): 0.482
phosphorylation enrichment (c-Abl (mouse)): 0.784
phosphorylation enrichment (Hck): 0.489
phosphorylation enrichment (Jak2): 0.779
phosphorylation enrichment (Fer (mouse)): 0.445
phosphorylation enrichment (EPHB1): 0.397
phosphorylation enrichment (MERTK): 0.456
phosphorylation enrichment (EPHB2): 0.424
phosphorylation enrichment (FGFR3): 0.514
phosphorylation enrichment (AncSZ): 0.534
phosphorylation enrichment (Fyn): 0.61
phosphorylation enrichment (c-Src): 0.426

SH2 binding enrichment (Grb2 SH2): 0.755
SH2 binding enrichment (c-Src SH2): 0.784
SH2 binding enrichment (SHP2-C SH2): 0.553
Sequence: KDQGTYEDYVE [MYL6_Y86]
phosphorylation enrichment (Fes): 1.23
phosphorylation enrichment (FGFR1): 0.534
phosphorylation enrichment (c-Abl (mouse)): 0.866
phosphorylation enrichment (Hck): 0.617
phosphorylation enrichment (Jak2): 1.13
phosphorylation enrichment (Fer (mouse)): 0.56
phosphorylation enrichment (EPHB1): 0.493
phosphorylation enrichment (MERTK): 0.543
phosphorylation enrichment (EPHB2): 0.576
phosphorylation enrichment (FGFR3): 0.721
phosphorylation enrichment (AncSZ): 1.24
phosphorylation enrichment (Fyn): 0.647
phosphorylation enrichment (c-Src): 0.768

SH2 binding enrichment (Grb2 SH2): 0.887
SH2 binding enrichment (c-Src SH2): 0.43
SH2 binding enrichment (SHP2-C SH2): 0.664
Sequence: KDYETYQPFQN [CTNND2_Y1157]
phosphorylation enrichment (Fes): 1.17
phosphorylation enrichment (FGFR1): 0.686
phosphorylation enrichment (c-Abl (mouse)): 0.846
phosphorylation enrichment (Hck): 6.07
phosphorylation enrichment (Jak2): 0.883
phosphorylation enrichment (Fer (mouse)): 1.47
phosphorylation enrichment (EPHB1): 3.29
phosphorylation enrichment (MERTK): 0.514
phosphorylation enrichment (EPHB2): 7.67
phosphorylation enrichment (FGFR3): 0.801
phosphorylation enrichment (AncSZ): 1.72
phosphorylation enrichment (Fyn): 6
phosphorylation enrichment (c-Src): 4.83

SH2 binding enrichment (Grb2 SH2): 0.911
SH2 binding enrichment (c-Src SH2): 0.514
SH2 binding enrichment (SHP2-C SH2): 0.658
Sequence: KEAVLYPHLPP [SQSTM1_Y383_A381V]
phosphorylation enrichment (Fes): 0.727
phosphorylation enrichment (FGFR1): 0.444
phosphorylation enrichment (c-Abl (mouse)): 0.798
phosphorylation enrichment (Hck): 0.385
phosphorylation enrichment (Jak2): 0.659
phosphorylation enrichment (Fer (mouse)): 0.363
phosphorylation enrichment (EPHB1): 0.409
phosphorylation enrichment (MERTK): 0.422
phosphorylation enrichment (EPHB2): 0.579
phosphorylation enrichment (FGFR3): 0.646
phosphorylation enrichment (AncSZ): 0.566
phosphorylation enrichment (Fyn): 0.415
phosphorylation enrichment (c-Src): 0.464

SH2 binding enrichment (Grb2 SH2): 0.769
SH2 binding enrichment (c-Src SH2): 0.499
SH2 binding enrichment (SHP2-C SH2): 0.716
Sequence: KEEEDYKEENN [BMS1_Y651]
phosphorylation enrichment (Fes): 1.06
phosphorylation enrichment (FGFR1): 0.468
phosphorylation enrichment (c-Abl (mouse)): 0.75
phosphorylation enrichment (Hck): 0.516
phosphorylation enrichment (Jak2): 1
phosphorylation enrichment (Fer (mouse)): 0.55
phosphorylation enrichment (EPHB1): 0.532
phosphorylation enrichment (MERTK): 0.422
phosphorylation enrichment (EPHB2): 0.554
phosphorylation enrichment (FGFR3): 0.561
phosphorylation enrichment (AncSZ): 1.15
phosphorylation enrichment (Fyn): 0.475
phosphorylation enrichment (c-Src): 0.453

SH2 binding enrichment (Grb2 SH2): 0.825
SH2 binding enrichment (c-Src SH2): 0.697
SH2 binding enrichment (SHP2-C SH2): 0.622
Sequence: KELANYYKLHH [AK7_Y390]
phosphorylation enrichment (Fes): 0.685
phosphorylation enrichment (FGFR1): 2.93
phosphorylation enrichment (c-Abl (mouse)): 0.497
phosphorylation enrichment (Hck): 0.495
phosphorylation enrichment (Jak2): 2.44
phosphorylation enrichment (Fer (mouse)): 0.383
phosphorylation enrichment (EPHB1): 4.12
phosphorylation enrichment (MERTK): 0.844
phosphorylation enrichment (EPHB2): 1.89
phosphorylation enrichment (FGFR3): 1.83
phosphorylation enrichment (AncSZ): 0.708
phosphorylation enrichment (Fyn): 0.453
phosphorylation enrichment (c-Src): 0.509

SH2 binding enrichment (Grb2 SH2): 0.957
SH2 binding enrichment (c-Src SH2): 0.767
SH2 binding enrichment (SHP2-C SH2): 0.685
Sequence: KELAPYDENWF [RPS19_Y48]
phosphorylation enrichment (Fes): 1.12
phosphorylation enrichment (FGFR1): 0.563
phosphorylation enrichment (c-Abl (mouse)): 0.597
phosphorylation enrichment (Hck): 0.517
phosphorylation enrichment (Jak2): 1.06
phosphorylation enrichment (Fer (mouse)): 0.53
phosphorylation enrichment (EPHB1): 0.506
phosphorylation enrichment (MERTK): 0.421
phosphorylation enrichment (EPHB2): 0.618
phosphorylation enrichment (FGFR3): 0.664
phosphorylation enrichment (AncSZ): 1.2
phosphorylation enrichment (Fyn): 0.506
phosphorylation enrichment (c-Src): 0.458

Sequence: KENITYMKSEQ [L1TD1_Y24_R27S]
phosphorylation enrichment (Fes): 0.767
phosphorylation enrichment (FGFR1): 0.456
phosphorylation enrichment (c-Abl (mouse)): 0.503
phosphorylation enrichment (Hck): 0.457
phosphorylation enrichment (Jak2): 0.585
phosphorylation enrichment (Fer (mouse)): 0.32
phosphorylation enrichment (EPHB1): 0.411
phosphorylation enrichment (MERTK): 0.39
phosphorylation enrichment (EPHB2): 0.426
phosphorylation enrichment (FGFR3): 0.524
phosphorylation enrichment (AncSZ): 0.806
phosphorylation enrichment (Fyn): 0.358
phosphorylation enrichment (c-Src): 0.425
SH2 binding enrichment (Grb2 SH2): 1.01
SH2 binding enrichment (c-Src SH2): 0.53
SH2 binding enrichment (SHP2-C SH2): 0.629

SH2 binding enrichment (Grb2 SH2): 0.687
SH2 binding enrichment (c-Src SH2): 0.557
SH2 binding enrichment (SHP2-C SH2): 0.473
Sequence: KFDLMYAKCAF [TUBA1A_Y399_R402C]
phosphorylation enrichment (Fes): 1.35
phosphorylation enrichment (FGFR1): 0.491
phosphorylation enrichment (c-Abl (mouse)): 1.06
phosphorylation enrichment (Hck): 0.677
phosphorylation enrichment (Jak2): 1.25
phosphorylation enrichment (Fer (mouse)): 0.68
phosphorylation enrichment (EPHB1): 0.72
phosphorylation enrichment (MERTK): 0.624
phosphorylation enrichment (EPHB2): 0.723
phosphorylation enrichment (FGFR3): 0.841
phosphorylation enrichment (AncSZ): 1.27
phosphorylation enrichment (Fyn): 0.567
phosphorylation enrichment (c-Src): 0.598

SH2 binding enrichment (Grb2 SH2): 0.847
SH2 binding enrichment (c-Src SH2): 0.527
SH2 binding enrichment (SHP2-C SH2): 0.772
Sequence: KFDLMYAKHAF [TUBA1A_Y399_R402H]
phosphorylation enrichment (Fes): 0.987
phosphorylation enrichment (FGFR1): 0.397
phosphorylation enrichment (c-Abl (mouse)): 0.573
phosphorylation enrichment (Hck): 0.438
phosphorylation enrichment (Jak2): 0.805
phosphorylation enrichment (Fer (mouse)): 1.07
phosphorylation enrichment (EPHB1): 0.521
phosphorylation enrichment (MERTK): 0.408
phosphorylation enrichment (EPHB2): 0.543
phosphorylation enrichment (FGFR3): 0.564
phosphorylation enrichment (AncSZ): 0.794
phosphorylation enrichment (Fyn): 0.435
phosphorylation enrichment (c-Src): 0.44

SH2 binding enrichment (Grb2 SH2): 1.23
SH2 binding enrichment (c-Src SH2): 0.586
SH2 binding enrichment (SHP2-C SH2): 0.914
Sequence: KFGTNYRVGSS [CPO_Y278_YF]
phosphorylation enrichment (Fes): 0.803
phosphorylation enrichment (FGFR1): 0.509
phosphorylation enrichment (c-Abl (mouse)): 0.725
phosphorylation enrichment (Hck): 0.465
phosphorylation enrichment (Jak2): 0.767
phosphorylation enrichment (Fer (mouse)): 0.418
phosphorylation enrichment (EPHB1): 0.422
phosphorylation enrichment (MERTK): 0.508
phosphorylation enrichment (EPHB2): 0.382
phosphorylation enrichment (FGFR3): 0.567
phosphorylation enrichment (AncSZ): 1.04
phosphorylation enrichment (Fyn): 0.444
phosphorylation enrichment (c-Src): 0.466

SH2 binding enrichment (Grb2 SH2): 0.71
SH2 binding enrichment (c-Src SH2): 0.983
SH2 binding enrichment (SHP2-C SH2): 0.516
Sequence: KGFCGYSFDDI [TMEM230_Y110_R108C_YF]
phosphorylation enrichment (Fes): 1.35
phosphorylation enrichment (FGFR1): 0.595
phosphorylation enrichment (c-Abl (mouse)): 1.07
phosphorylation enrichment (Hck): 0.456
phosphorylation enrichment (Jak2): 1.28
phosphorylation enrichment (Fer (mouse)): 0.504
phosphorylation enrichment (EPHB1): 0.613
phosphorylation enrichment (MERTK): 0.471
phosphorylation enrichment (EPHB2): 0.568
phosphorylation enrichment (FGFR3): 0.863
phosphorylation enrichment (AncSZ): 1.18
phosphorylation enrichment (Fyn): 0.526
phosphorylation enrichment (c-Src): 1.16

SH2 binding enrichment (Grb2 SH2): 1.32
SH2 binding enrichment (c-Src SH2): 0.549
SH2 binding enrichment (SHP2-C SH2): 0.703
Sequence: KGLKVYVNGTL [ADGRD1_Y183_E178K]
phosphorylation enrichment (Fes): 1.16
phosphorylation enrichment (FGFR1): 0.421
phosphorylation enrichment (c-Abl (mouse)): 0.584
phosphorylation enrichment (Hck): 0.441
phosphorylation enrichment (Jak2): 0.923
phosphorylation enrichment (Fer (mouse)): 0.452
phosphorylation enrichment (EPHB1): 0.524
phosphorylation enrichment (MERTK): 0.431
phosphorylation enrichment (EPHB2): 0.576
phosphorylation enrichment (FGFR3): 0.677
phosphorylation enrichment (AncSZ): 1.11
phosphorylation enrichment (Fyn): 0.364
phosphorylation enrichment (c-Src): 0.406

SH2 binding enrichment (Grb2 SH2): 0.757
SH2 binding enrichment (c-Src SH2): 1.99
SH2 binding enrichment (SHP2-C SH2): 2.15
Sequence: KGTAGYTTVAV [RET_Y752_R749T]
phosphorylation enrichment (Fes): 0.493
phosphorylation enrichment (FGFR1): 0.327
phosphorylation enrichment (c-Abl (mouse)): 0.448
phosphorylation enrichment (Hck): 0.357
phosphorylation enrichment (Jak2): 0.398
phosphorylation enrichment (Fer (mouse)): 0.313
phosphorylation enrichment (EPHB1): 0.46
phosphorylation enrichment (MERTK): 0.349
phosphorylation enrichment (EPHB2): 0.362
phosphorylation enrichment (FGFR3): 0.34
phosphorylation enrichment (AncSZ): 0.517
phosphorylation enrichment (Fyn): 0.359
phosphorylation enrichment (c-Src): 0.37

SH2 binding enrichment (Grb2 SH2): 0.862
SH2 binding enrichment (c-Src SH2): 0.562
SH2 binding enrichment (SHP2-C SH2): 0.54
Sequence: KHTLSFVDVGT [SDHA_Y629_Y629F]
phosphorylation enrichment (Fes): 0.691
phosphorylation enrichment (FGFR1): 0.348
phosphorylation enrichment (c-Abl (mouse)): 0.451
phosphorylation enrichment (Hck): 0.364
phosphorylation enrichment (Jak2): 0.624
phosphorylation enrichment (Fer (mouse)): 0.371
phosphorylation enrichment (EPHB1): 0.319
phosphorylation enrichment (MERTK): 0.315
phosphorylation enrichment (EPHB2): 0.495
phosphorylation enrichment (FGFR3): 0.497
phosphorylation enrichment (AncSZ): 0.661
phosphorylation enrichment (Fyn): 0.384
phosphorylation enrichment (c-Src): 0.292

SH2 binding enrichment (Grb2 SH2): 0.601
SH2 binding enrichment (c-Src SH2): 0.367
SH2 binding enrichment (SHP2-C SH2): 0.602
Sequence: KIDAKYKKKIE [WDR19_Y1230]
phosphorylation enrichment (Fes): 0.891
phosphorylation enrichment (FGFR1): 0.368
phosphorylation enrichment (c-Abl (mouse)): 0.631
phosphorylation enrichment (Hck): 0.408
phosphorylation enrichment (Jak2): 0.594
phosphorylation enrichment (Fer (mouse)): 0.401
phosphorylation enrichment (EPHB1): 0.27
phosphorylation enrichment (MERTK): 0.418
phosphorylation enrichment (EPHB2): 0.373
phosphorylation enrichment (FGFR3): 0.368
phosphorylation enrichment (AncSZ): 0.698
phosphorylation enrichment (Fyn): 0.308
phosphorylation enrichment (c-Src): 0.346
